Results published in publication PMC4199913 (The FEBS journal, 2014).

Columns and labels:
[1] = target: MaTrx2 (Methanosarcina acetivorans, UniProt Q8TL30); assay: turbidimetric insulin reduction, […] nm; type: biochemical; conditions: 0.33 mM DTT, 0.13 mM insulin, 100 mM KPO4 pH 6.8, anaerobic
[2] = target: MaTrx6Δsp (Methanosarcina acetivorans, UniProt Q8TIA1); assay: turbidimetric insulin reduction, […] nm; type: biochemical; conditions: 0.33 mM DTT, 0.13 mM insulin, 100 mM KPO4 pH 6.8, anaerobic
[3] = target: MaTrx7 (Methanosarcina acetivorans, UniProt Q8TR15); assay: turbidimetric insulin reduction, […] nm; type: biochemical; conditions: 0.33 mM DTT, 0.13 mM insulin, 100 mM KPO4 pH 6.8, anaerobic
[4] = substrate: NC(=O)C1=CN([C@@H]2O[C@H](COP(=O)(O)OP(=O)(O)OC[C@H]3O[C@@H](n4cnc5c(N)ncnc54)[C@H](OP(=O)(O)O)[C@@H]3O)[C@@H](O)[C@H]2O)C=CC1; assay: purified protein; type: biochemical, Methanosarcina acetivorans; conditions: 1 mM DTNB, 0.5 µM MaTrxR, 50 mM Tris-HCl 150 mM NaCl pH 7.2, anaerobic
[5] = substrate: NC(=O)C1=CN([C@@H]2O[C@H](COP(=O)(O)OP(=O)(O)OC[C@H]3O[C@@H](n4cnc5c(N)ncnc54)[C@H](O)[C@@H]3O)[C@@H](O)[C@H]2O)C=CC1; assay: purified protein; type: biochemical, Methanosarcina acetivorans; conditions: 1 mM DTNB, 0.5 µM MaTrxR, 50 mM Tris-HCl 150 mM NaCl pH 7.2, anaerobic

`OC(CS)C(O)CS` (stereo not drawn) [DTT] was tested, and the “turbidimetric insulin reduction, 650 nm” value [1] was “All three purified MaTrxs exhibited both DTT- and lipoamide-dependent insulin reduction activity”, the “turbidimetric insulin reduction, 650 nm” value [2] was “All three purified MaTrxs exhibited both DTT- and lipoamide-dependent insulin reduction activity” and the “turbidimetric insulin reduction, 650 nm” value [3] was “All three purified MaTrxs exhibited both DTT- and lipoamide-dependent insulin reduction activity”.

B1: MaTrxR (Methanosarcina acetivorans C2A) (protein)
chain: MNSFLFSGGNMYDLIIIGGGPAGLAAGIYAVRFGLDTLVLEKSEISGQISMSDIVENYPGFPSISGLELMEKYRTHAQEVGVKTKITEVLSVRTEGAKKIVSTDSGDLEAKTLIIATGANPKHLGVPGEKEFISKGVSYCAICDGPFFKNKTVVVVGGGNSAVTDALLLSKVAQNVYLIHRRDRLKAAKVLQDRALATPNIEFILNTLVQEIAGSREGVKKVEKVILQDLNSKESRELSTNGVFIYVGIQPNTEFVNVEKNNEGFIITNRWMETSEKGIYAAGDCRDTPIWQLVAAVRDGAIAATAANEYIESLK
With B1 the Km [4] was 6.3 ± 0.5 µM, the kcat [4] was 0.65 s⁻¹ and the kcat/Km [4] was 103000 M⁻¹ s⁻¹. It also gave a Km [5] of 736 ± 57 µM, a kcat [5] of 0.817 s⁻¹ and a kcat/Km [5] of 1120 M⁻¹ s⁻¹.
